The text below walks through data of US12043671B2, “Antibodies targeting an amphiregulin-derived cell surface neo-epitope” (Gundersen Lutheran Medical Foundation, Inc., priority 2021, dated 2024).

The test system of one experiment is MCF-7 cells. As to the kind of experiment: Tubulin staining (microtubule integrity). The format is cell-based, human. As to conditions: 48 h treatment. The protocol:
FIGS. 4A-4E. In vitro 1A3-MMAE cytotoxicity in MCF-7 (FIG. 4A) and MCF-7F (FIG. 4B) cells measured by MTT assay after treatment with 1A3-MMAE, 1A3 or MMAE. FIG. 4C: Clonogenic growth of MCF-7 or MCF-7F cells after exposure to 1A3-MMAE and replating. FIG. 4D: The quantification of clonogenic growth assays in FIG. 4C. (FIG. 4E). Tubulin staining of MCF-7 cells after 48 h treatment with MMAE, 1A3, 1A3-MMAE (40× magnification).

For a further experiment, the system named is MCF7 cells. Put plainly: Internalization and intracellular localization of 1A3-pHrodo, live-cell imaging. The format is cell-based, human. As to conditions: time course to 2.5 h. The protocol:
In order to study internalization, 1A3 was conjugated with pHrodo iFL Red dye using pHrodo iFL Red Microscale Protein Labeling Kit (P36014, Thermo Fisher Scientific). MCF7 cells were seeded in 12 mm Nunc Glass Bottom Dish, at a density of 1 ×10^5 cells/dish. After allowing the cells to attach overnight, the cells were incubated for 60 min with […] Hoechst dye for nuclei staining and LysoTracker® Green DND-26 (Thermo Fisher Scientific) for lysosomal labeling. The cells were then incubated with 1A3-pHrodo (2 μg/mL) for 20 min at 37° C. After washing the wells with PBS, the cells were supplemented with 1× live-cell imaging solution (Molecular probes, Thermo Fisher Scientific). Fluorescence images were acquired at 30 min intervals for 2.5 h with the Olympus 1×71 inverted fluorescence microscope (Olympus, Shinjuku, Tokyo, Japan). TAPI-2 (20 μM)—pre-treatment was performed overnight, with DMSO serving as a control.

In a further experiment the test system is MCF7-F xenografts. As to the kind of experiment: Orthotopic MCF7-F endocrine-resistant xenograft in NSG mice. The format is in vivo, mouse. The text has this: (§1) In Vivo Antitumor Activity Studies: The animal experiments were approved by the Institutional Animal Care and Use Committee of University of Wisconsin La Crosse (La Crosse, Wisconsin, USA). Four-week-old female NOD.Cg-Prkdc^scid II2rg^tm1Wjl/SzJ mice (NSG; The Jackson Laboratory) were acclimated for 1 week before the experiments. For MCF7 breast cancer xenograft model, the mice were implanted subcutaneously with 0.72-mg 17β-estradiol 90-day release tablets (Innovative Research of America) 3 days prior to cell injection. […] Firefly luciferase expressing MCF7 and MCF7-F cells (2×10^6 cells in a 1:1 mixture of serum-free DMEM and Matrigel) were injected orthotopically into the fourth inguinal mammary fat pad of each mouse. Once the tumors were well established, each cell line cohort was divided into three groups (n=5). Mean tumor volume at the start of treatment was 111 mm^3 for the MCF7 cohorts and 119 mm^3 for the MCF7-F cohorts. The mice were treated by intraperitoneal injection every 4 days for a total of six doses with unconjugated or MMAE conjugated anti-cleaved-AREG 1A3 antibody (5 mg/kg), or vehicle control (PBS). Tumor volumes were calculated from caliper data by using the formula: Volume (mm^3)=(Length×Width^2)/2. Mice were imaged weekly with the in vivo FX PRO imaging system (Carestream Molecular Imaging, Woodbridge, CA, USA) after injecting luciferin (150 mg/kg body weight). Tumor volume and body weight were monitored once a week. Statistical Analysis:
(§2) To test in vivo efficacy of 1A3-MMAE, human breast cancer cell lines expressing luciferase were injected orthotopically into NSG mice (one tumor in each inguinal mammary gland). Once the average tumor size reached approximately 100-125 mm^3, mice were randomized to one of three treatment groups: PBS, 1A3 (5 mg/kg) or 1A3-MMAE (5 mg/kg). Mice received intraperitoneal injections every 4 days for six total injections and were monitored for tumor progression or regression. Similar experiments were performed with MCF7 (FIGS. 5A, 5B, and 5C, left panels) and MCF7-F (FIGS. 5A, 5B, and 5C, right panels) xenografts.

The next experiment deals with MCF7 xenografts. Put plainly: Orthotopic MCF7 breast cancer xenograft in NSG mice. In kind it is in vivo, mouse.
Description: as §1, §2

For experiment [1], the target named is T1, peptide representing the neo-epitope of the ADAM17-cleavage product of human AREG (Homo sapiens, UniProt P15514).
T1 construct: host or cells: synthetic peptide
Put plainly: ELISA of rabbit IgG candidates against peptides representing cleaved and full length AREG. The format is binding. The text has this: FIGS. 1A-1C. Isolation of antibodies that selectively recognize a peptide representing cleaved AREG. FIG. 1A: Schematic representation of the AREG cleavage and EGFR activation process, one consequence of which is the internalization of the small transmembrane fragment that remains cell-associated after TACE/ADAM17-mediated cleavage. FIG. 1B: Schematic representation of phage panning strategy using a peptide representing the cleaved AREG neo-epitope adhered to the well and a peptide representing the non-cleaved AREG region in the liquid phase.
Rabbit monoclonal IgG antibodies specific to cleaved-AREG were identified in contracted screening (Oak Biosciences Inc., Sunnyvale, CA, USA) using a recombinant Rabbit naïve phage display library (scFv format, VK-linker-VH) screening platform after four rounds of panning and ELISA validation. For panning, phage was selected against a peptide modeling the ADAM17-cleaved cell-associated epitope of AREG,^12 represented by the N-terminal region of THSMIDSSLSKI (SEQ ID NO: 2), and counter-selected against a peptide spanning this region (SMKTHSMIDSSLSKIAC; SEQ ID NO: 9), representing uncleaved AREG. […] GMF-1A3, referred to hereafter as simply “1A3”, was the antibody chosen for further characterization in this Example.

B1: 1A3: Rabbit monoclonal IgG specific to cleaved AREG; VH SEQ ID NO: 3, VL SEQ ID NO: 4 (antibody, V domains shown)
VH: QSVKESEGRLVTPGTPLRLTCTVAGYSLSRYHMCWVRQAPGKGLEWIGMIGGSGRTDYASWAKGRFTISKTSTTVDLKITSPTTEDTATYFCSTVYTDSDGDFWGPGTLVTVSS
VL: AELDMTQTPSSKSVPVGGTVTINCQASESVYSNDRLAWFQQKPGQPPKLLIYYASTLASGVPSRFKGSGSGTQFTLTISDLECADAATYYCQSCYDMSSYGVAFGGGTELEIL
modifications: 1A3 antibody, Heavy chain; 1A3 antibody, Light chain
For B1, the “tubulin disruption (microtubule integrity)” value in the experiment with MCF-7 cells was “did not”. The “trafficking after internalization (colocalization of pHrodo and Lysotracker signals)” value in the experiment on MCF7 cells was “trafficked to the lysosome after internalization”. Further, the “longitudinal luciferase imaging of xenografts” value in the experiment with MCF7-F xenografts (5 mg/kg) was “exhibited tumor growth”; with MCF7 xenografts (MCF7, 5 mg/kg) it was “exhibited tumor growth”. Besides, the “tumor volume response by caliper measurements” value is reported as “continued, sometimes rapid increases in tumor volume” in the experiment with MCF7-F xenografts (5 mg/kg i.p. every 4 days, six doses) and “continued, sometimes rapid increases in tumor volume” in the experiment with MCF7 xenografts (MCF7, 5 mg/kg i.p. every 4 days, six doses). Further, the “selectivity for cleaved AREG by ELISA” value in experiment [1] (IgG format, cleaved vs uncleaved AREG peptide) is “selectivity for cleaved AREG was confirmed”. Moreover, in experiment [1] (compared among the three antibodies), the “binding ratio of cleaved AREG to intact AREG as determined by ELISA” value is listed as “highest binding ratio”.
